In patent US20230340152A1:
Values belong to the binder of their own block, whether it stands above or below them.

Key:
Murine CD73 ECD (murine) = Murine CD73 ECD (murine) (UniProt Q61503); experiment: binding assay, format not stated
[1] = biological target: Cynomolgus CD73 ECD (cynomolgus); experiment: binding assay, format not stated
Sequence of Cynomolgus CD73 ECD (cynomolgus) (chain, as listed by the source): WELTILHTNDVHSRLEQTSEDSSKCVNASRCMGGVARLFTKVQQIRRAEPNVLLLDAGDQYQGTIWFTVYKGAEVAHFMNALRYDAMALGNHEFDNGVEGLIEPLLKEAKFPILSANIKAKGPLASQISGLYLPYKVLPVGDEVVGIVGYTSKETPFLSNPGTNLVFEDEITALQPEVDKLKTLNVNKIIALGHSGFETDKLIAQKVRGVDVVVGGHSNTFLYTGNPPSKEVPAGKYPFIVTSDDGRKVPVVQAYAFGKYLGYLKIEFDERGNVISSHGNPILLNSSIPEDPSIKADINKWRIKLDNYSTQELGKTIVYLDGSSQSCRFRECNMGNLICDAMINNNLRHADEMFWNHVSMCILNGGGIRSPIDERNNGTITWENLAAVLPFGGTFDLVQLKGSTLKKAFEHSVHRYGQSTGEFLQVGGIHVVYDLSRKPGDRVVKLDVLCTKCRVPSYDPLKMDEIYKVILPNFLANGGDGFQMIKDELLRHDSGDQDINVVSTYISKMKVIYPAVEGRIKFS

Sequence of Murine CD73 ECD (murine) (Q61503 29-551 limits assumed): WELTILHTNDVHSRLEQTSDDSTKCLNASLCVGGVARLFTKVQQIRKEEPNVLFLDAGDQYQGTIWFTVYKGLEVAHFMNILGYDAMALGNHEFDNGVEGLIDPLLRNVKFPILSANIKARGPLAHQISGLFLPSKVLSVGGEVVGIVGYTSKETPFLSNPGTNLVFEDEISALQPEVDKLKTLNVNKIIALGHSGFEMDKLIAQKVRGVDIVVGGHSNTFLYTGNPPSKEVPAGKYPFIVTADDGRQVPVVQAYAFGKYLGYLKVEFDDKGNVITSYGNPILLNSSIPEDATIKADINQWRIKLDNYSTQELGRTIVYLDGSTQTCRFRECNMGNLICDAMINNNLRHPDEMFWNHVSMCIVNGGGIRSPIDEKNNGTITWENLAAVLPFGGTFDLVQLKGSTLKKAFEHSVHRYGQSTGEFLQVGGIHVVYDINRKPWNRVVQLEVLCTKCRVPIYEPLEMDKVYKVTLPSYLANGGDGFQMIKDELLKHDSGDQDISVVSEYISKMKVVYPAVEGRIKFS

1/EC50 (Murine CD73 ECD (murine)): 0 nM⁻¹
B1: CD730042 (antibody, V domains shown)
VH: GVQLVQSGGGLVQPGGSLRLSCAASGFTFSSYGMHWVRQAPGKGLEWVAVISYDGSIKYYADSVKGRFTISRDDSKNALYLQMNSLRAEDTAVYYCSTLSGSYGYFDYWGRGTLVTVSS
VL: QSVLTQPASVSGSPGQSITISCAGTSSDVGGYNYVSWYQQHPGKAPKLMIYEGSKRPSGVSNRFSGSKSGNTASLTISGLQAEDEADYYCSSYTTRSTRVFGGGTKLTVL

1/EC50 (Murine CD73 ECD (murine)): 0 nM⁻¹
1/EC50 [1]: 0 nM⁻¹
B2: CD730047 (antibody, V domains shown)
VH: EVQLVQSGGGVVQPGRSLRLSCAASGFTFSSYGMHWVRQAPGKGLEWVAVISYDGSIKYYADSVKGRFAISRDNAKNTLYLQMNSLRREDTAMYYCASGLTGVAGALGVWGRGTLVTVSS
VL: QSVLTQPPSASGAPGQRVTISCSGSSSNIGSNTVNWYQRLPGAAPQLLIYNNDQRPSGIPDRFSGSKSGTSGSLVISGLQSEDEADYYCAAWDDSLSGNVFGTGTKVTVL
